Measurements as given in patent publication US20040053865A1 (UNITED STATES OF AMERICA AS REPRESENTED BY THE SECRETARY OF …, published 2004).

T1: sGP (secreted glycoprotein) from EboGP-VRP-infected cells (Ebola virus, Zaire strain, Mayinga …, UniProt P60170 33-324)
T1 sequence: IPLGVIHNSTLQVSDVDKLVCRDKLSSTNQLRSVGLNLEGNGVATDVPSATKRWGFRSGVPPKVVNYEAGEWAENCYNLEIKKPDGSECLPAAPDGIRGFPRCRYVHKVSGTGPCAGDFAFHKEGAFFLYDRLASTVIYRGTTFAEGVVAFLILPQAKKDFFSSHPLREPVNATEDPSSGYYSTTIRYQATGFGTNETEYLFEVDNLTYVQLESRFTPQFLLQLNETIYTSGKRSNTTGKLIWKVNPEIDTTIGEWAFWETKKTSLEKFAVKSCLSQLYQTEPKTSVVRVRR

T2: Ebola Sudan (Boniface) virus glycoprotein (GP) (Ebola virus, Sudan strain (isolate …, UniProt Q66814 33-676))
T2 sequence: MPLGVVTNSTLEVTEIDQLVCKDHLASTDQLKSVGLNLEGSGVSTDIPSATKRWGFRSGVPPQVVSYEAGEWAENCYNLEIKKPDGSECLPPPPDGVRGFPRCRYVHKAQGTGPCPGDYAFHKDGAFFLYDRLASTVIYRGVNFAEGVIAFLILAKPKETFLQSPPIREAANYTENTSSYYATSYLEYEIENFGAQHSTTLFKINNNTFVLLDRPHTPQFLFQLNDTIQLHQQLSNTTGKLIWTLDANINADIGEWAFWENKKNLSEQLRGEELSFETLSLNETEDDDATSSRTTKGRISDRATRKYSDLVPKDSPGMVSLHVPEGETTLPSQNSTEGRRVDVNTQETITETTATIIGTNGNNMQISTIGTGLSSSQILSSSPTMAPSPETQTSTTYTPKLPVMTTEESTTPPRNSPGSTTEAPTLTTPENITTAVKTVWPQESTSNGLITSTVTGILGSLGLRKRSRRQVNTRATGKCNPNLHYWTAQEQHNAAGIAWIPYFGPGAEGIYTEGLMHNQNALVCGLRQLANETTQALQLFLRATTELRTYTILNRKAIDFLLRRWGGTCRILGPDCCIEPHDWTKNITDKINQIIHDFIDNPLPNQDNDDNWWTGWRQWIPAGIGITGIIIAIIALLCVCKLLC

T3: Ebola Ivory Coast virus glycoprotein (GP) (Ebola virus, Ivory Coast strain, UniProt Q66810 33-676)
T3 sequence: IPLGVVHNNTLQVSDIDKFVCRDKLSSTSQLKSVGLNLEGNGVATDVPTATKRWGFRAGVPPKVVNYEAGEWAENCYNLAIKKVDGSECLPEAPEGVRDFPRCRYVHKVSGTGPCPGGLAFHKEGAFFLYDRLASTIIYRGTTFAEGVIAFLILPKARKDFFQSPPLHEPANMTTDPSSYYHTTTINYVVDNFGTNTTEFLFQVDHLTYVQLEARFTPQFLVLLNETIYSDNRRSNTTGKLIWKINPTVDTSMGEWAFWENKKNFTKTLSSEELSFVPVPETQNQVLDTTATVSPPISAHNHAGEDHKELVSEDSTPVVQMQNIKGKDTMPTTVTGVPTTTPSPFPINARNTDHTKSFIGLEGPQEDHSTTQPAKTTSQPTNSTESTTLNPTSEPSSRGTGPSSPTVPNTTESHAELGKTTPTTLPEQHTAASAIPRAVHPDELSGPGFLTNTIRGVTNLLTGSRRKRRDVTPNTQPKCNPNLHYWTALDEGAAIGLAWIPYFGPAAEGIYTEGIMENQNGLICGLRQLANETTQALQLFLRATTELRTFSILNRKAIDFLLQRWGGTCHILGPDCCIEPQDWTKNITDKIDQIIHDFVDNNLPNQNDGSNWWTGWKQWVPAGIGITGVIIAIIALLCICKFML

T4: Ebola Zaire 1976 (Mayinga isolate) virus glycoprotein (GP) (Ebola virus, Zaire 1976 strain (isolate …, UniProt Q05320 33-676))
T4 sequence: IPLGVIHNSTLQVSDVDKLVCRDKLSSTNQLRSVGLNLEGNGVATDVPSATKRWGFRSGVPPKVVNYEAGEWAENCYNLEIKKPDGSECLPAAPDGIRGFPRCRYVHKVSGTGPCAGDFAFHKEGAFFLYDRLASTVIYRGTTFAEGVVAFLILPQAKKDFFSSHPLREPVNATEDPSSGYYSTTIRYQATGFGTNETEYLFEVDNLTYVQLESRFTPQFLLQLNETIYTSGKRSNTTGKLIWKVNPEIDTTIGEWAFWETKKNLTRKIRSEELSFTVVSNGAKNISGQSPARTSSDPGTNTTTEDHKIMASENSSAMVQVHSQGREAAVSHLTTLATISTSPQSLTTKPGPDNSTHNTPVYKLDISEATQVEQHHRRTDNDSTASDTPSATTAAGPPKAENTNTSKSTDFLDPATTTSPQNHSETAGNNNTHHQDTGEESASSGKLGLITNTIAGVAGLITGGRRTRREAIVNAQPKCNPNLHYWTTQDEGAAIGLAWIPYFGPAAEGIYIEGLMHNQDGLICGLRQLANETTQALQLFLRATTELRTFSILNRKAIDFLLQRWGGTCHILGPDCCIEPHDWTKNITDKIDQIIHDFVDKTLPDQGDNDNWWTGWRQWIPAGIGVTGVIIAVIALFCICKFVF


How the values were obtained:
[1] = target: T1, sGP (secreted glycoprotein) from …; assay: radioimmunoprecipitation from infected-cell supernatants
[2] = target: T2, Ebola Sudan (Boniface) virus …; assay: ELISA on irradiated sucrose-purified virions
[3] = target: T3, Ebola Ivory Coast virus glycoprotein …; assay: ELISA on irradiated sucrose-purified virions
[4] = target: T4, Ebola Zaire 1976 (Mayinga isolate) …; assay: ELISA on virions

Row | Binder | binding result [1] | binding result [2] | binding result [3] | binding result [4]
1 | MAb EGP 6D8-1-2 (antibody, V domains shown) VH: DVKLLESGGGLVQPGGSLKLSCAASGFDFSRYWMSWVRQAPGKGLEWIGEINPDSSTINYTPSLKDKFIISRDNAKNTLYLQMSKVRSEDTALYYCTRQGYGYNYWGQGTTLIVSS VL: DVLLTQIPLSLPVSLGDQASISCRSSQSIVHSNGNTYLEWYLQKPGQSPKLLIYKASNRFSGVPDRFSGSGSGTDFTLKINRVEAEDLGVYYCLQGSHVPSTFGGGTKLEIKR | no binding | no binding | no binding | binds
2 | MAb EGP 13F6-1-2 (antibody, V domains shown) VH: EVQVVESGGGLVKPGGSLKLSCAASGFAFSSYDMSWVRQTPEKRLEWVAYISRGGGYTYYPDTVKGRFTISRDNAKNTLYLQMSSLKSEDTAMYYCSRHIYYGSSHYYAMDYWGQGTSVTVSS VL: QLVLTQSSSASFSLGASAKLTCTLSRQHSTYTIEWYQQQPLKPPRYVMELKKDGSHSTGDGIPDRFSGSSSGADRYLSISNIQPEDEAIYICGVGDTIKEQFVYVFGGGTKVTVLG | no binding | no binding | no binding | –
